Measurements reported in patent US20180250358A1, “GHRH AGONISTS FOR THE TREATMENT OF ISCHEMIC DISORDERS” (published 2018).
Non-standard residues stand in square brackets, D forms with d. No end group written: not given here. *: point of attachment. Desaminotyrosyl = O=C(CCc1ccc(O)cc1)*; NMeY = CN[C@@H](Cc1ccc(O)cc1)C(=O)O; Agmatine = N=C(N)NCCCCN*; Nle = CCCC[C@H](N)C(=O)O; Orn = NCCC[C@H](N)C(=O)O; Abu = CC[C@H](N)C(=O)O

T1: GHRH receptor of human pituitary membranes (human, UniProt Q02643)
T1 sequence: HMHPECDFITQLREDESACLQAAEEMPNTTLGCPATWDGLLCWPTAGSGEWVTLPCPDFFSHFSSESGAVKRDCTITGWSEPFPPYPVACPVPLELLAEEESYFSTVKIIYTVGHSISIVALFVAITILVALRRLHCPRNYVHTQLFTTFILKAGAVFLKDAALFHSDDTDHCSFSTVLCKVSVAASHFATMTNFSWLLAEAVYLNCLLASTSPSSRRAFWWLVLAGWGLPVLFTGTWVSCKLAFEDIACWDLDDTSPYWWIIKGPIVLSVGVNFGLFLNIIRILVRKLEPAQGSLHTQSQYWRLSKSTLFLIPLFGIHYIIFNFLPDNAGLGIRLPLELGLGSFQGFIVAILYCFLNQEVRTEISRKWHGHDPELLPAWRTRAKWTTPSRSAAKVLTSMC

T2: GHRH receptor of rat pituitary cells (rat, UniProt Q02644)
T2 sequence: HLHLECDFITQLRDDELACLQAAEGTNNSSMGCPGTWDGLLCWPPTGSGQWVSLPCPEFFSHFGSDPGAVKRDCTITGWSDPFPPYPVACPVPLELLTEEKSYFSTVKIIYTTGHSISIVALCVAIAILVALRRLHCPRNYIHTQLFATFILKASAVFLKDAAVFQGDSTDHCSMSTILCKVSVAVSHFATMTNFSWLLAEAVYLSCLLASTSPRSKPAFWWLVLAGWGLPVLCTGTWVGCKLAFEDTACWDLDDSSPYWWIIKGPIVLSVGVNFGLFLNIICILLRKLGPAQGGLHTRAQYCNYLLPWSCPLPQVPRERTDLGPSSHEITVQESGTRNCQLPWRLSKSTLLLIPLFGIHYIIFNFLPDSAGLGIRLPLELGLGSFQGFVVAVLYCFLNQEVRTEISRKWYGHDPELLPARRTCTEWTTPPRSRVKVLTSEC


Tests used:
[1] = target: GHRH receptor of human pituitary membranes (human) (UniProt Q02643); experiment: competition vs 125I-[His1,Nle27]hGHRH(1-32)NH2, human pituitary membranes
[2] = target: T1, GHRH receptor of human pituitary …; experiment: competition vs 125I-JV-1-42, human pituitary membranes
[3] = target: T1, GHRH receptor of human pituitary …; experiment: as above; remark: listed apart in the source
Experimental: The final binding affinities were expressed as IC₅₀ values and were calculated by using the LIGAND PC computerized curve-fitting program of Munson and Rodbard as modified by McPherson.

[4] = target: T1, GHRH receptor of human pituitary …; experiment: competition vs 125I-[His1,Nle27]hGHRH(1-32)NH2, human pituitary membranes
[5] = target: T1, GHRH receptor of human pituitary …; experiment: as above; remark: listed apart in the source
[6] = target: T2, GHRH receptor of rat pituitary cells; experiment: cell-based or functional assay
[7] = target: T1, GHRH receptor of human pituitary …; experiment: competition vs 125I-[His1,Nle27]hGHRH(1-32)NH2, human pituitary membranes; remark: listed apart in the source
Source text: Normal human pituitaries were purchased from the National Hormone and Peptide Program (A.F. Parlow, Los Angeles, County Harbor-UCLA Medical Center, Torrance, Calif.).

Molecule	relative affinity (binding potency) vs GHRH (vs GHRH(1-29)=1) [1]	IC50 [2] [nM]	relative affinity (binding potency) vs JI-38 [2] [vs JI-38=1]	IC50 [3] [nM]	relative affinity (binding potency) vs GHRH [3]	relative affinity (binding potency) vs JI-38 [3] [vs JI-38=1]	relative affinity (binding potency) compared to JI-38 [4] [vs JI-38=1]	relative affinity (binding potency) compared to hGHRH(1-29) [4]	fold increase in GHRH receptor binding affinity vs JI-38 [5] [fold vs JI-38]	GH-releasing potency in vitro relative to JI-38, superfused rat pituitary cells [6] [fold vs JI-38]	IC50 [4] [nM]	fold enhancement of receptor binding affinity vs JI-38 [5] [fold vs JI-38]	IC50 [7] [nM]	relative affinity (binding potency) vs GHRH [7]	relative affinity (binding potency) vs JI-38 [7] [vs JI-38=1]
JI-36 (peptide)	3.25	–	–	–	–	–	–	–	–	–	–	–	–	–	–
JI-34 (peptide)	4.32	–	–	–	–	–	–	–	–	–	–	–	–	–	–
[NMeY]ADAIFTQSYR[Orn]VL[Abu]QLSAR[Orn]LLQDI[Nle]D[Agmatine] [P-20356 [N-Me-Tyr^1, Gln^8, Orn^12, Abu^15, Orn^21, Nle^27, Asp^28, Agm^29]hGHRH(1-29)NH2]	–	0.27	16.1	0.01	406 vs GHRH(1-29)=1	171	2.69	7.5 vs hGHRH(1-29)NH2=1	2.7	~3	–	–	–	–	–
[NMeY][dA]DAIFTQSYR[Orn]VL[Abu]QLSAR[Orn]LLQDI[Nle]DR-NHMe [P-27403 [N-Me-Tyr^1, D-Ala^2, Gln^8, Orn^12, Abu^15, Orn^21, Nle^27, Asp^28]hGHRH(1-29)NH-CH3]	–	0.16	27.2	–	–	–	3.69	10.3 vs hGHRH(1-29)NH2=1	–	–	0.74	~3.7	–	–	–
[Desaminotyrosyl]ADAIFTQSYR[Orn]VL[Abu]QLSAR[Orn]LLQDI[Nle]D[Agmatine] (SMILES CCCC[C@H](NC(=O)[C@@H](NC(=O)[C@H](CC(=O)O)NC(=O)[C@H](CCC(N)=O)NC(=O)[C@H](CC(C)C)NC(=O)[C@H](CC(C)C)NC(=O)[C@H](CCCN)NC(=O)[C@H](CCCNC(=N)N)NC(=O)[C@H](C)NC(=O)[C@H](CO)NC(=O)[C@H](CC(C)C)NC(=O)[C@H](CCC(N)=O)NC(=O)[C@H](CC)NC(=O)[C@H](CC(C)C)NC(=O)[C@@H](NC(=O)[C@H](CCCN)NC(=O)[C@H](CCCNC(=N)N)NC(=O)[C@H](Cc1ccc(O)cc1)NC(=O)[C@H](CO)NC(=O)[C@H](CCC(N)=O)NC(=O)[C@@H](NC(=O)[C@H](Cc1ccccc1)NC(=O)[C@@H](NC(=O)[C@H](C)NC(=O)[C@H](CC(=O)O)NC(=O)[C@H](C)NC(=O)CCc1ccc(O)cc1)[C@@H](C)CC)[C@@H](C)O)C(C)C)[C@@H](C)CC)C(=O)N[C@@H](CC(=O)O)C(=O)NCCCCNC(=N)N) [JI-38 [Dat^1, Gln^8, Orn^12,21, Abu^15, Nle^27, Asp^28, Agm^29]hGHRH(1-29)NH2]	–	4.35	1	1.71	2.4 vs GHRH(1-29)=1	1	1	2.79 vs hGHRH(1-29)NH2=1	–	–	2.74	–	1.95	3.03 vs GHRH(1-29)=1	1
